Columns and labels:
Test in all cases: flow cytometry on cells
[1] = molecular target: T1, KRAS^WT p5 peptide presented on HLA-A*02 (p5^WT/A*02) (Homo sapiens, HLA-A*02:01, strain, biotin on the AviTag (BirA co-expressed))
T1 chain 1: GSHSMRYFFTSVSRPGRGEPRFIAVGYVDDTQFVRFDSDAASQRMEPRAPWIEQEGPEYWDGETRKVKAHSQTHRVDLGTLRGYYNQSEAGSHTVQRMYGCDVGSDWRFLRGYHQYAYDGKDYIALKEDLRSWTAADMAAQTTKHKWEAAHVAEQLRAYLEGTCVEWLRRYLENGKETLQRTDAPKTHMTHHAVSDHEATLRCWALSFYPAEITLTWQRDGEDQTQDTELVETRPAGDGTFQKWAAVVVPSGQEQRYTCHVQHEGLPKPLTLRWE
T1 chain 2: not shown
T1 chain 3: KLVVVGAGGV

[2] = molecular target: T2, KRAS^WT p7 peptide presented on HLA-A*03 (p7^WT/A*03) (Homo sapiens, HLA-A*03:01, strain, biotin on the AviTag (BirA co-expressed))
T2 chain 1: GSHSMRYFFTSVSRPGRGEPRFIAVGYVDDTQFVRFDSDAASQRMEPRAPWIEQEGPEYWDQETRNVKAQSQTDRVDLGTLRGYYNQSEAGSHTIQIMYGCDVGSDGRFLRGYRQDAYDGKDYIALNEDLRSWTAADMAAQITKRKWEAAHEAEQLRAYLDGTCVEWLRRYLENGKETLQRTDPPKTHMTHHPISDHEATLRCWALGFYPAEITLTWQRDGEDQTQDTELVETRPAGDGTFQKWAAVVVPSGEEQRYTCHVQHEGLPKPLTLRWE
T2 chain 2: not shown
T2 chain 3: VVVGAGGVGK

[3] = molecular target: KRAS^WT p7 peptide presented on HLA-A*11 (p7^WT/A*11) (Homo sapiens, HLA-A*11:01, strain, biotin on the AviTag (BirA co-expressed))

Measured: binding result

B1: yeast-displayed scFv R302 (scFv, V domains shown)
VH: EVQLLESGGGVVQPGRSLRLSCAASGFTFSSYGMHWVRQAPGKGLEWVAVISYDGSNKYYADSVKGRFTISRDNSKNTLYLQMNSLRAEDTAVYYCLYGGNSYGMDVWGQGTMVTVFN
VL: DIVMTQSPATLSLSPGERATLSCRASQSLSSSFLAWYQQKPGQAPRLLIYGASSRATGIPDRFSGSGSGTDFTLTISRLEPEDFAVYYCQQSESALTFGGGTKVEIK
no binding: [1] | [2] | [3]

From paper PMC12717047 (Nature Communications, 2025)
